Experimental findings from patent publication US20150011431A1 are described below.

This assay deals with CXCR1 (UniProt P25024). Kind of assay: cell-based or functional assay.
Sequence of CXCR1 (P25024 whole entry): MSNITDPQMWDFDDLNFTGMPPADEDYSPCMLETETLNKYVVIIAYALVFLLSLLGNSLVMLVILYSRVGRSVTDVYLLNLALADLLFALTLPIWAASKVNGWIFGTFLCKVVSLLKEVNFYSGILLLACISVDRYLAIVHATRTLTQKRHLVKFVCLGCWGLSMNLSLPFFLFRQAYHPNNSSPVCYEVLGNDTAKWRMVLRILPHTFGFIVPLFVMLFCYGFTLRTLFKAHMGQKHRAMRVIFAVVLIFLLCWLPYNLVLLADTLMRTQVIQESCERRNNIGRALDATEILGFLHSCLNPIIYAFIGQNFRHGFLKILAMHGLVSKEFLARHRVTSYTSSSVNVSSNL

Sequence of IL-8 (soluble cytokine) (P10145 28-99 limits assumed): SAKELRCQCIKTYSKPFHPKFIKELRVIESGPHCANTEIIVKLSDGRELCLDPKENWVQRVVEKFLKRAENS

“IL-8 (soluble cytokine) (from UniProt P10145 28-99) (ligand)”: the average RLU at 0.01 nM (beta-arrestin recruitment reporter, CXCR1-U2OS cells) was 440 RLU; the average RLU at 0.08 nM (beta-arrestin recruitment reporter, CXCR1-U2OS cells) was found to be 504 RLU; the average RLU at 0.23 nM (beta-arrestin recruitment reporter, CXCR1-U2OS cells) came out at 940 RLU; the average RLU at 0.69 nM (beta-arrestin recruitment reporter, CXCR1-U2OS cells) was 1940 RLU. Besides, the average RLU at 2.06 nM (beta-arrestin recruitment reporter, CXCR1-U2OS cells) came to 4110 RLU; the average RLU at 6.17 nM (beta-arrestin recruitment reporter, CXCR1-U2OS cells) was determined as 5870 RLU; the average RLU at 18.52 nM (beta-arrestin recruitment reporter, CXCR1-U2OS cells) is 7300 RLU; the average RLU at 31.5 nM (beta-arrestin recruitment reporter, CXCR1-U2OS cells) is 55500 RLU. The average RLU at 55.56 nM (beta-arrestin recruitment reporter, CXCR1-U2OS cells) is 7360 RLU; the average RLU at 166.67 nM (beta-arrestin recruitment reporter, CXCR1-U2OS cells) stood at 6770 RLU; the average RLU at 500.00 nM (beta-arrestin recruitment reporter, CXCR1-U2OS cells) came out at 5720 RLU.

As to “IgG VH4-4 CDR3 BsaI (lacking the IL-8 insert) (antibody)”, the average RLU at 0.001 nM IgG (beta-arrestin recruitment reporter, CXCR1-U2OS cells) turned out to be 7500 RLU; the average RLU at 0.004 nM IgG (beta-arrestin recruitment reporter, CXCR1-U2OS cells) turned out to be 7390 RLU; the average RLU at 0.013 nM IgG (beta-arrestin recruitment reporter, CXCR1-U2OS cells) amounted to 7050 RLU; the average RLU at 0.040 nM IgG (beta-arrestin recruitment reporter, CXCR1-U2OS cells) came to 6970 RLU. The average RLU at 0.120 nM IgG (beta-arrestin recruitment reporter, CXCR1-U2OS cells) amounted to 7330 RLU; the average RLU at 0.359 nM IgG (beta-arrestin recruitment reporter, CXCR1-U2OS cells) stood at 6690 RLU; the average RLU at 1.076 nM IgG (beta-arrestin recruitment reporter, CXCR1-U2OS cells) turned out to be 7180 RLU; the average RLU at 3.228 nM IgG (beta-arrestin recruitment reporter, CXCR1-U2OS cells) turned out to be 7030 RLU. The substance also came in with an average RLU at 9.685 nM IgG (beta-arrestin recruitment reporter, CXCR1-U2OS cells) of 7170 RLU; an average RLU at 29.056 nM IgG (beta-arrestin recruitment reporter, CXCR1-U2OS cells) of 7100 RLU; an average RLU at 87.167 nM IgG (beta-arrestin recruitment reporter, CXCR1-U2OS cells) of 7140 RLU; an average RLU at 261.500 nM IgG (beta-arrestin recruitment reporter, CXCR1-U2OS cells) of 7540 RLU.
